Results from patent US20030119772A1.

Target: ZEB expressed in NIH 3T3 cells in the p21 promoter luciferase reporter assay
Experiment: cell-based or functional assay

p21-promoter-driven luciferase reporter in NIH 3T3 cells, relative light units | p21-promoter-driven luciferase reporter (p53-mediated transactivation) in NIH 3T3 cells | Substance
2 fold | – | 53BP1 co-expressed in NIH 3T3 cells in the p21 promoter luciferase reporter assay
– | 4 fold | CtBP1
